Data from patent US20080311122A1 (AstraZeneca / MedImmune, published 2008).

Biological target: T1, HMGB1 in joint lysates of adjuvant induced arthritis (AIA) rats (rat, UniProt P63159 2-215)
T1 construct: also called HMGB1 from arthritis joints; AA joint lysates
T1 sequence (looked up): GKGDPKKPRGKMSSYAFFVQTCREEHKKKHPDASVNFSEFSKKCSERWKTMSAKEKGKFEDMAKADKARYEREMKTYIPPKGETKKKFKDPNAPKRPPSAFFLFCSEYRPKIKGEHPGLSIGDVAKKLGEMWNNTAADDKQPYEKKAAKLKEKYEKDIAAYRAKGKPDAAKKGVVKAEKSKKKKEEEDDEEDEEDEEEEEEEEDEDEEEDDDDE
Experiment: sandwich ELISA and immunoprecipitation with Western blot
Description: HMGB1 Detection from Biological Samples: For detection of the HMGB1 from AA joint homogenates and peritonitis sera, sandwich ELISA was performed. Goat anti-human Fc (Pierce) 14 μg/ml in PBS was coated on Immunlon IV microtiter plate over night at 4° C. After washing and blocking with 5% milk 1 hr at room temperature, G4 or S6 in blocking buffer (10 μg/ml) were added to each well of the blocked plate. The plate was washed 1 hour later and 25 μl of AIA homogenates containing 0.8 μg/ml of HMGB1 or peritonitis sera containing 7 μg/ml of HMGB1 in 0.5 M NaCl/blocking buffer were added to the wells at two fold serial dilutions. The unbound materials were removed by washing one hr after incubation. The bound HMGB1 was detected by a mouse anti-HMGB1 antibody at 2 μg/ml followed by an anti-mouse antibody conjugated with horseradish peroxidase. Mouse peritonitis sera was obtained by heart puncture 7 days after infection with heat killed staphylococcus aureus. Joint lysate was prepared from the whole paw of AIA rats as described in Example 6 below. Human sepsis sera were purchased from a commercial source.
Immunoprecipitation and Western Blot: Anti-HMGB1 mAbs (G4 and S6) and isotype control were first biotinylated using EZ-Link Sulfo-NHS-LC-Biotin as instructed by the manufacturer (Pierce). After labeling, the mAb was tested for binding to HMGB1 by ELISA with unlabeled mAbs as controls. […]

B1: anti-HMG1 antibody G4 (antibody, V domains shown)
VH: EVQLLESGGGLVQPGGSLRLSCAASGFTFSWYDMTWVRQAPGKGLEWVSSISPSGGYTKYADSVKGRFTISRDNSKNTLYLQMNSLRAEDTAVYYCTTEFYDYLDVWGKGTTVTVSS
VL: DIQMTQSPGTLSLSPGEGATLSCRASQSVSSTYLAWYQQKPGQAPRLLIYEASKRATGTPARFSGSGSGTDFTLSISSLEPEDFAVYYCQHRHNWPPQWTFGQGTKVEVK
notes: also called ATCC PTA-6258
B1: binds.
